What was measured:
[1] = biological target: T1, biotinylated equine IL31 (immobilized to the biolayer interferometry sensor) (equine, biotinylated, sites not stated); experiment: biolayer interferometry, biotinylated equine IL31 on the sensor, preliminary measurement
T1 chain: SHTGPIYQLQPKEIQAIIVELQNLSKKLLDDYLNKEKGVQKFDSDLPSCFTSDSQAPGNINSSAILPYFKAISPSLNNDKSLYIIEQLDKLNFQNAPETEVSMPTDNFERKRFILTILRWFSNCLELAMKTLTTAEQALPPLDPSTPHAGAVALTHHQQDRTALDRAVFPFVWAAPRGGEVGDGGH

[2] = biological target: T2, canine IL31 with C-terminal polyHis tag (canine, biotinylated (EZ-Link NHS-LC-biotin), sites not stated); experiment: biolayer interferometry (Octet), biotinylated canine IL31 on streptavidin tips, 2:1 binding model
T2 construct: also called biotinylated canine IL31
T2 chain: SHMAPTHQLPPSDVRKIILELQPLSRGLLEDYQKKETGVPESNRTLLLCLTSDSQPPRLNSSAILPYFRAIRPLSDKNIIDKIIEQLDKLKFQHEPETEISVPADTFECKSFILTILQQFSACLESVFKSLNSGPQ
Experimental: The binding analysis was performed using a biosensor Octet as follows. Briefly, canine IL31 was biotinylated. The free unreacted biotin was removed from biotinylated IL31 by extensive dialysis. Biotinylated canine IL31 was captured on streptavidin sensor tips. The association of four different concentrations (400, 200, 66.6, and 33 nM) of antibody and IL31 (human and canine, in different tests) was monitored for ninety seconds. Dissociation was monitored for 600 seconds. A buffer only blank curve was subtracted to correct for any drift. The data were fit to a 2:1 binding model using ForteBio™ data analysis software to determine the kₒₙ, koff, and the Kd. The buffer for dilutions and all binding steps was: 20 mM phosphate, 150 mM NaCl, pH 7.2.

B1: M14 antibody (as used in Example 7) (antibody, V domains shown)
VH: EVQLQESGPSLVKPSQTLSLTCSVTGDSITSGYWNWIRKFPGNKLEYMGYISYSGITDYNPSLKSRISITRDTSKNQYYLQLNSVTTEDTATYYCARYGNYGYAMDYWGQGTSVTVSS
VL: DIVLTQSPASLAVSLGQRATISCRASESVDTYGNSFMHWYQQKSGQSPKLLIYRASNLESGIPARFGGSGSRTDFTLTIDPVEADDVATYYCQQSYEDPWTFGGGTKLEIK
notes: also called monoclonal antibody M14
Question: B1 was tested. Which Kd [1] did it give?
Answer: 10 to 50 nM

B2: caninized M14 IgG-B (antibody, V domains shown)
VH: EVQLVESGPSLVKPGGSLRLTCSVTGDSITSGYWNWIRKFPGNKLEYMGYISYSGITDYNPSLKSRITISRDTSKNQYYLQLNSVTTEDTATYYCARYGNYGYAMDYWGQGTLVTVSS
VL: DIVMTQSPASLSVSLGQRATISCRASESVDTYGNSFMHWYQQKPGQSPKLLIYRASNLESGIPARFGGSGSGTDFTLTIDPVQADDVATYYCQQSYEDPWTFGGGTKLEIKR
notes: canine IgG-B; also called caninized M14 antibody; caninized IL31-mAb M14
Question: For B2, which Kd [2] is on record?
Answer: < 0.01 nM

— patent US20230365672A1 (KINDRED BIOSCIENCES, published 2023)
